The text below walks through data of US20200138970A1 (Bayer, published 2020).

A value given as a limit tells only on which side of the number the result lay.

Test [1] deals with T1, human B7H3 on cancer cell lines (human, UniProt Q5ZPR3 29-534).
T1 sequence (looked up): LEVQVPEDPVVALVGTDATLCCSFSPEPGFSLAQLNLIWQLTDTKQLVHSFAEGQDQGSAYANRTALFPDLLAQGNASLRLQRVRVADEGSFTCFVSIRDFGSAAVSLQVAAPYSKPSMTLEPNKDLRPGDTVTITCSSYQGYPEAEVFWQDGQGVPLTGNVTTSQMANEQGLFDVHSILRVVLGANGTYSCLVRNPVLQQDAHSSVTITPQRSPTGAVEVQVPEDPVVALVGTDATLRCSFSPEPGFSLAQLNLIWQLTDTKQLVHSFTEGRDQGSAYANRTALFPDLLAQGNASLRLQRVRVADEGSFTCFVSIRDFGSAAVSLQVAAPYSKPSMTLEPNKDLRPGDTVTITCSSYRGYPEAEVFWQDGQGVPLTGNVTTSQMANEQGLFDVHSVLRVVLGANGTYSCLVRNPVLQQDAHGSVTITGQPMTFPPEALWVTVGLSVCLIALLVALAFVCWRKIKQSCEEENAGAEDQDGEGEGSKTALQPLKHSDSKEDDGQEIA
The experiment in a line: cell-based or functional assay.

Test [2] has as its target T2, human B7H4 (RnDSystems, 6576-B7) (human, UniProt Q7Z7D3 29-258, limits assumed).
T2 construct: Bought protein; His tag implied by anti-His detection
T2 sequence (looked up): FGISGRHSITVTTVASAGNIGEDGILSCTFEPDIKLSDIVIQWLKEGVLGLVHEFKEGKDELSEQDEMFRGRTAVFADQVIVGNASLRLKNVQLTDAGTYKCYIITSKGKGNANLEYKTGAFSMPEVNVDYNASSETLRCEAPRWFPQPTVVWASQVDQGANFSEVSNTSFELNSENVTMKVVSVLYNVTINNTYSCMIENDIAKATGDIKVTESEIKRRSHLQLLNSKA
The experiment in a line: ELISA, IgG captured on anti-human IgG Fc, antigen 37 ng/ml, anti-His HRP detection. The procedure: (§1) Binding of the antibodies to human B7H3 and to human B7H2 and B7H4 was characterized using ELISAs. […] After washing once with PSB, 0.05% Tween, the plate was blocked with 100% Smart Block (Candor) for one hour at 37° C. The antibody to be tested was then attached to the plate (2 μg/ml IgG in PBS, 0.05% Tween, 10% Smart Block; 1 hour, room temperature). […] After washing three times, the plate was incubated with Amplex Red for 30 minutes and then read.

The target in test [3] is T3, human B7H2 (RnDSystems, 8206-B7) (human, UniProt O75144 19-258, limits assumed).
T3 construct: Bought protein; His tag implied by anti-His detection
T3 sequence (looked up): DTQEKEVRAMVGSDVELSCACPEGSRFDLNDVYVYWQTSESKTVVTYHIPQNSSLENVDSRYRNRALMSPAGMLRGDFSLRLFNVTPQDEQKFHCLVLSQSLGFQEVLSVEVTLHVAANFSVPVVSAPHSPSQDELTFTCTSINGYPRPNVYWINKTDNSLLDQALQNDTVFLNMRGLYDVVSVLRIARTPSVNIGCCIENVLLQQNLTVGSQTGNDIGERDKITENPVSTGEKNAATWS
The description is as above. The procedure:
as §1

Test [4] addresses T4, TPP-3760, B7H3 long, human (R&D Systems 2318-B3/CF) (human, UniProt Q5ZPR3 27-461).
T4 construct: Bought protein; also called B7H3 (RnDSystems, 2318-B3-050/CF); human B7H3
T4 sequence: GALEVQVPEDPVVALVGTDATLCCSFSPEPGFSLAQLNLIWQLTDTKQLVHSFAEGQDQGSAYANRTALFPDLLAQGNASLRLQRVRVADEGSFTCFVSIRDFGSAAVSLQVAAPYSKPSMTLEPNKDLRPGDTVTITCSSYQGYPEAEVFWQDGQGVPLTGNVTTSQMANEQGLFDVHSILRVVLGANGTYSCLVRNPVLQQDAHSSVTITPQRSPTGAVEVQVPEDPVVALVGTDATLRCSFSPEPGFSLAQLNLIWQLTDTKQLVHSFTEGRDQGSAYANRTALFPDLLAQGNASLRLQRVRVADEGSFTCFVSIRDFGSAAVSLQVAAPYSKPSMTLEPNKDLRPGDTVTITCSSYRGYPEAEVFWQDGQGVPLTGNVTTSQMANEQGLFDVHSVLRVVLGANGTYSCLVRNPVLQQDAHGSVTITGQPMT
The description is as above. The procedure:
as §1

In test [5] the target is T1, human B7H3 on cancer cell lines. The experiment in a line: flow cytometry on A498 cells, dose response from 10 ug/mL (1:5 dilution), FITC secondary antibody. The procedure:
A dose response curve (1:5 dilution) was generated. Following incubation, 200 μL of ice-cold FACS buffer were pipetted in and the cell suspension was centrifuged at 4° C., 400 g for 4 min. The cell pellet was washed with 300 μL of ice-cold FACS buffer prior to resuspending the pellet obtained in 100 μL of FACS buffer and again incubating for 30 min on ice with secondary antibody (monoclonal anti-kappa light chains FITC antibody, Sigma, No. SAB4700605) in a 1:10 dilution. Subsequently, the cells were washed with ice-cold FACS buffer and adjusted to a cell concentration of 0.5×10⁶ cells/mL before carrying out the flow cytometry using a Guava flow cytometer (Millipore). Propidium iodide (final concentration 1 μg/mL) was used for the live staining. With the aid of the background-corrected geometric mean fluorescence values, the IC50 value of the antibody to be investigated was determined.
In general terms: In flow cytometry, cells or beads pass a laser one at a time.

For 208-isotype control (antibody), in test [1], the NCI-H292 CTG (IC50 M) came to 137 nM and the U251 CTG (IC50 M) was 77.6 nM.

B1: TPP-6501 (antibody, human IgG1, lambda, V domains shown)
VH: EVQLLESGGGLVQPGGSLRLSCAASGFTFSSYGMHWVRQAPGKGLEWVSAISGSGGSTYYADSVKGRFTISRDNSKNTLYLQMNSLRAEDTAVYYCARGSNYLGMDVWGQGTLVTVSS
VL: QSVLTQPPSASGTPGQRVTISCSGSSSNIGRNIVNWYQQLPGTAPKLLIYRSNQRPSGVPDRFSGSKSGTSASLAISGLRSEDEADYYCQTWGTGWVFGGGTKLTVLG
As usually defined, the EC50 is the concentration that produces a half-maximal response. A high value points to a need for much substance. On to B1, for which the “Quotient signal (B7)/signal (buffer)” value was less than 1.5 in test [2], less than 1.5 in test [3] and 118 in test [4]. The molecule also registered an EC50 in test [5] of 1.23 nM.
